In test [1] the target is integrin αvβ3 (Homo sapiens, UniProt P05106+P06756). The test is described as follows: Human FP direct binding assay. The conditions noted are these: Table 3; fluorescently modified peptides; Integrin aVb3. The method, then:
(§1) Affinity of selected fluorescently modified peptides of the invention for integrin αvβ3 (Kd) (and αvβ5 to test for selectivity) was determined using a human direct binding assay analogous to that described in Schottelius et al. (2009) Acc. Chem. Res. 42, 969-980.

The target in test [2] is T1, integrin αvβ3 (human, UniProt P06756 31-992; P05106 27-718).
T1 construct: also called Integrin aVb3
T1 sequence (P06756 31-992, chain 1 of 2): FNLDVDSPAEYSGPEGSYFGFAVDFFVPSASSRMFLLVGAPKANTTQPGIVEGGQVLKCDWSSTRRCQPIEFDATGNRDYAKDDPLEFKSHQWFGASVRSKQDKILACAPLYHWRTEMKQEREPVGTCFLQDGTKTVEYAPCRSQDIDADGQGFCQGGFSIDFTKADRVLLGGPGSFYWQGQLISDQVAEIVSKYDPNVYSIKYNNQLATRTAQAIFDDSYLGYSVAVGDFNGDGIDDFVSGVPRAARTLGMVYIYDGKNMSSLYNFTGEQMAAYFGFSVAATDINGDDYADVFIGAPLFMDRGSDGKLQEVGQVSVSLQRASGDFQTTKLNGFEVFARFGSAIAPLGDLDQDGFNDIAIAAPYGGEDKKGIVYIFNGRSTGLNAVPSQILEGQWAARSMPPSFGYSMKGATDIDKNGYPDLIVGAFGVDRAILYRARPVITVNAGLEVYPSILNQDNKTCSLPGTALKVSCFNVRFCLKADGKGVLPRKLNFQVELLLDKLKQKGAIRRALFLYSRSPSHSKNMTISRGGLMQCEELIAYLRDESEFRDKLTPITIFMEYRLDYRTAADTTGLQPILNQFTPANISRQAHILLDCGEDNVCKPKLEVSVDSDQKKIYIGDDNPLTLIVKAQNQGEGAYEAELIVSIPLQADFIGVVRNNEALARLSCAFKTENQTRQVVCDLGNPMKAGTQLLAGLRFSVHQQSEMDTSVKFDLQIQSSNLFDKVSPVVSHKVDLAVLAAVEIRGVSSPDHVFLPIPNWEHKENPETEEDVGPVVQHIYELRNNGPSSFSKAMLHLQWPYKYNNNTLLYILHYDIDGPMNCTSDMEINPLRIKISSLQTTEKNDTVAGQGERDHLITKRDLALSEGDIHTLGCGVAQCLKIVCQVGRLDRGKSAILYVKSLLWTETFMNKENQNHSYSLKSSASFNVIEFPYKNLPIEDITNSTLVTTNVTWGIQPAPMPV
T1 sequence (P05106 27-718, chain 2 of 2): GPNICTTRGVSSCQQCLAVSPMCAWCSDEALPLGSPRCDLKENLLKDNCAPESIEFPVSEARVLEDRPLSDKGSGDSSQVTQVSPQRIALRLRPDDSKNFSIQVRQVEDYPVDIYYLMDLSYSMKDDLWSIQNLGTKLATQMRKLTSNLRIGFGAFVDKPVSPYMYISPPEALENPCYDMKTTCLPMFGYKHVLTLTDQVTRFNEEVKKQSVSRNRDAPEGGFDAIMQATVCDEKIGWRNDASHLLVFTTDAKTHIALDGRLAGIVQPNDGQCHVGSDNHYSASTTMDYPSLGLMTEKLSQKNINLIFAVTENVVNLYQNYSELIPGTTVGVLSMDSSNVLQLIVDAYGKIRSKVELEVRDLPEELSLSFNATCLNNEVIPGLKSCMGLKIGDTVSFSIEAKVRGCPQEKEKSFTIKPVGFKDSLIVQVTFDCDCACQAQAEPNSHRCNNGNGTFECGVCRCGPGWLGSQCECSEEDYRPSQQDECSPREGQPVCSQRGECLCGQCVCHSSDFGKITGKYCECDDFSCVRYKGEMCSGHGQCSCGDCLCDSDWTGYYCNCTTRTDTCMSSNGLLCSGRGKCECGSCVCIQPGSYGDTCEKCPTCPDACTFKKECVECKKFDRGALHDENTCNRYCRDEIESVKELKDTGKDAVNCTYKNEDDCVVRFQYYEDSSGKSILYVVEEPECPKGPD
The test is described as follows: Human FP Direct binding. The method, then: as §1

Starred links: 1 amine or outer side, 2 acyl side, 3 side chain; linkers in the order of their positions; H or OH if unused. Positions of bridges follow the written chain, without caps; N, C: chain ends. Non-standard residues stand in square brackets, D forms with d. No end group written: not given here. *: point of attachment. FITC = O=C1OC2(c3ccc(O)cc3Oc3cc(O)ccc32)c2ccc(NC(=S)*)cc21; TATA = O=C(CC[*:1])N1CN(C(=O)CC[*:2])CN(C(=O)CC[*:3])C1; Ahx = NCCCCCC(=O)O; Fl = fluorescein; Sar = CNCC(=O)O

integrin αvβ3 (Homo sapiens, UniProt P05106+P06756), sequence (P06756 31-889 limits assumed): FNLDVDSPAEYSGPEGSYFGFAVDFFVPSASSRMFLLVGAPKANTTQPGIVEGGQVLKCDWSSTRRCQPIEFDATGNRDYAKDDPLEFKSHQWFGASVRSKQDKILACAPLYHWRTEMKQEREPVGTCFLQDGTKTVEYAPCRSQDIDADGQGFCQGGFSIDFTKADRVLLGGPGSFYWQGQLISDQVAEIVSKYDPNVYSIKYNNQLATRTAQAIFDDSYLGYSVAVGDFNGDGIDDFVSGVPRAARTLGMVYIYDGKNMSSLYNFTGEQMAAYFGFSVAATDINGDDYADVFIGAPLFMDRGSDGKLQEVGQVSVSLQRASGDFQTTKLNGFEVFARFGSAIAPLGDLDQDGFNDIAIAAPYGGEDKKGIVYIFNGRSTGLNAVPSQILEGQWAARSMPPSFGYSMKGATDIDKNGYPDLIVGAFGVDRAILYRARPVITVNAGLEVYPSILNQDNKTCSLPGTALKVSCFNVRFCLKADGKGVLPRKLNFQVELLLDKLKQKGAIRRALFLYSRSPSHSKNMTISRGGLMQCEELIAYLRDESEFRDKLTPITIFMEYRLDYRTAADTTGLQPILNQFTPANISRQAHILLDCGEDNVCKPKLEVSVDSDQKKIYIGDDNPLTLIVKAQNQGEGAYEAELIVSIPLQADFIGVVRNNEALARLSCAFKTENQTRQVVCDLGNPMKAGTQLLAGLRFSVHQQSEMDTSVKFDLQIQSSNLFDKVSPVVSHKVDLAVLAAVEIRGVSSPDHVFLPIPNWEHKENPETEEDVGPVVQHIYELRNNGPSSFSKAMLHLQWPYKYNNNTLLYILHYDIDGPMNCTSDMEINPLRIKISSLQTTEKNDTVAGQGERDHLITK
integrin αvβ3 (Homo sapiens, UniProt P05106+P06756), sequence (P06756 891-1048 partner limits assumed): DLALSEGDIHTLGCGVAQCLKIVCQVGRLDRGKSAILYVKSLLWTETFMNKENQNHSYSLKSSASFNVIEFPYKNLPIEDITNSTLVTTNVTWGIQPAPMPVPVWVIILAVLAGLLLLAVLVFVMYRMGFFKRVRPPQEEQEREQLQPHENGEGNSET
integrin αvβ3 (Homo sapiens, UniProt P05106+P06756), sequence (P05106 27-788): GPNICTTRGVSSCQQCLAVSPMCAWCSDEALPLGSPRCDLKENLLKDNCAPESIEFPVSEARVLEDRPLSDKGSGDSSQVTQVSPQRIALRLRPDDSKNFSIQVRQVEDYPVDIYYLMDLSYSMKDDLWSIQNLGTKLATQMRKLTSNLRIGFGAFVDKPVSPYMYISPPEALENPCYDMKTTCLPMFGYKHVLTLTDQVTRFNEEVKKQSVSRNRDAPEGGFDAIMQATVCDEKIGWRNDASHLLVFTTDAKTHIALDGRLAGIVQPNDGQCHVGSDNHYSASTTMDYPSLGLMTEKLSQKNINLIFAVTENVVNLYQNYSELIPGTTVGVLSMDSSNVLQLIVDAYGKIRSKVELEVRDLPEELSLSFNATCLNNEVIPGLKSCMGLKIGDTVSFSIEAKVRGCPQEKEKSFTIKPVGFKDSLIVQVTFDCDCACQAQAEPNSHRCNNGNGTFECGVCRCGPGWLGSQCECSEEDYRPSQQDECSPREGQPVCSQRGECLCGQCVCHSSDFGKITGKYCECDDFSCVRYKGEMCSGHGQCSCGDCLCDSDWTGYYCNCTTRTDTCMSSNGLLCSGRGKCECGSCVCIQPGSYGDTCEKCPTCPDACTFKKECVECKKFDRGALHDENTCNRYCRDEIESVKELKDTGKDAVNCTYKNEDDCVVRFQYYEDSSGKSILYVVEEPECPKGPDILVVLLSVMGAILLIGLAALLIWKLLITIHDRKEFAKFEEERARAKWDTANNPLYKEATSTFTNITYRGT

{FITC-Ahx}-GRGSSP [BCY7766]: the Kd (as a rule, the equilibrium constant for the complex coming apart) at integrin αvβ3 [1] was found to be 1.15 nM.

The molecule {FITC-Ahx}-GRGSSP (also called FITC-Ahx-GRGSSP) [BCY7766] displayed a Kd with integrin αvβ3 [2] of 1.15 nM. This lies in the single-digit nanomolar range.

In the test with integrin αvβ3 [2], Ac-CPHIGRTDCPPCA[Sar][Sar][Sar][Sar][Sar][Sar]K(Fl) (linker 1-9-12 via TATA) [BCY7508] displayed a Kd of 0.05 nM. Against the preceding molecule, the Kd is about 23-fold lower.

(Values after US20220064221A1, “BICYCLIC PEPTIDE LIGANDS SPECIFIC FOR INTEGRIN ALPHA-V-BETA-3” (BicycleTx Limited, priority 2019, published 2022).)
